Measured values taken from article PMC12510807, “MUC1 drives ferroptosis resistance in ICC via Src‐mediated FSP1 deubiquitination and myristoylation” (Clinical and Translational Medicine, 2025).

Target: T1, recombinant Src (UniProt P12931 1-536)
T1 construct: the printed kinase domain limits 249-536 fit the 536-residue human protein; the tag on Src may differ between the three pull-downs; also called purified Src; source: recombinant, purified
Test: pull-down; in vitro GST pull-down with recombinant or purified proteins; which partner bore GST is not told
Details: both partners purified

B1: purified NMT1 (enzyme, UniProt P30419 1-496, looked up)
chain: MADESETAVKPPAPPLPQMMEGNGNGHEHCSDCENEEDNSYNRGGLSPANDTGAKKKKKKQKKKKEKGSETDSAQDQPVKMNSLPAERIQEIQKAIELFSVGQGPAKTMEEASKRSYQFWDTQPVPKLGEVVNTHGPVEPDKDNIRQEPYTLPQGFTWDALDLGDRGVLKELYTLLNENYVEDDDNMFRFDYSPEFLLWALRPPGWLPQWHCGVRVVSSRKLVGFISAIPANIHIYDTEKKMVEINFLCVHKKLRSKRVAPVLIREITRRVHLEGIFQAVYTAGVVLPKPVGTCRYWHRSLNPRKLIEVKFSHLSRNMTMQRTMKLYRLPETPKTAGLRPMETKDIPVVHQLLTRYLKQFHLTPVMSQEEVEHWFYPQENIIDTFVVENANGEVTDFLSFYTLPSTIMNHPTHKSLKAAYSFYNVHTQTPLLDLMSDALVLAKMKGFDVFNALDLMENKTFLEKLKFGIGDGNLQYYLYNWKCPSMGAEKVGLVLQ
notes: Purified NMT1 protein of the GST pull-down with Src; source: purified
binding result: binds
